Assay [1] addresses T1, FOXP3/Runx1 heterodimerization (Homo sapiens, UniProt Q9BZS1).
T1 construct: made in house; host or cells: E. coli BL21 (DE3)
T1 sequence (Q9BZS1 1-431): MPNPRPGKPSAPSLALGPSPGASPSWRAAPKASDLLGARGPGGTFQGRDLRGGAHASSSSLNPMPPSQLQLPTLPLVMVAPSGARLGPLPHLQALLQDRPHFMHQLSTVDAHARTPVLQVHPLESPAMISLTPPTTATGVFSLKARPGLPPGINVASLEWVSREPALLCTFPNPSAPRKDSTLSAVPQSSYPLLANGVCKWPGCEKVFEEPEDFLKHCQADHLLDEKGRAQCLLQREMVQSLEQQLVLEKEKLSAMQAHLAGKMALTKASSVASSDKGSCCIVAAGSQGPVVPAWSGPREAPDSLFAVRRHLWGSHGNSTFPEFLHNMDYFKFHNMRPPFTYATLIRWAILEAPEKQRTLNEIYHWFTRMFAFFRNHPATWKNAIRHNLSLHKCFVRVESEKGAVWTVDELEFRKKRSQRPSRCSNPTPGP
Description: FOXP3/Runx1 heterodimerization inhibition (Alphascreen). It is filed as biochemical. To be noted: for Foxp3-Runx1 Inhibition % inhibition (100 μM): peptide 100 μM. An excerpt: (§1) Plasmid pET20b FOXP3-His was generated to produce the human FOXP3 tagged with 6 histidines at the C terminus of the protein. Briefly, plasmid pDEST15-FOXP3 (provided by Dr. Casal, Madrid, Spain) was used as template to amplify FOXP3 by PCR using the primers Upper FOXP3 Ndel catatgcccaaccccaggc (SEQ ID NO: 55) and Lower FOXP3 […] (SEQ ID NO: 56). The resulting fragment was subcloned in pET20b at Ndel and NotI sites. pET45b His-Runx1 was obtained by PCR of activated human CD4 T cells obtained from healthy volunteers (after the signature of an informed consent) using the primers Upper Runx1 atgcgtatccccgtagatg (SEQ ID NO: 57) and Lower Runx1 […] (SEQ ID NO: 58) and the fragment was cloned in pcDNA3.1. Then, pET45b and pcDNA3.1-Runx1 were digested with BamHI and NotI and ligated to obtain pET45b-Runx1. Plasmids were used to transform BL21 cells (DE3; Novagen, Schwalbach, Germany) for the expression of the recombinant protein. The transformed BL21 cells were grown in LB medium at 37° C. (1 liter of final culture medium) (with ampicilin 0.1 mg/ml). Once the OD of the culture was between 0.5 and 1.0, IPTG (0.4 mM, final concentration) was added. Bacteria were then cultured overnight in agitation and centrifuged for 10 min at 8000 rpm. Cell pellet was then resuspended in 4 ml Tris-HCl 0.1 M and frozen at −80° C. Cell pellet was then thawed and incubated with lisozyme (25 KU) and a protease inhibitor cocktail for 15 min at 30° C. before cell lysis induced with a French-press. The resultant pool was then centrifuged during 20 min at 11.000 rpm). The recombinant protein was purified from the soluble fraction of French-press cell extracts by affinity chromatography (Histrap, Pharmacia) following manufacturer's instructions and using an FPLC platform (AKTA, Pharmacia). Plasmid pDEST15-FOXP3 encoding the fusion protein GST-FOXP3 (GST fused to the isoform A from human FOXP3 gene), was transformed into BL21 cells for the expression of the recombinant protein. GST-FOXP3 protein was purified from the soluble fraction of cell extracts obtained, as described above, by affinity chromatography (GSTrap; Amersham, Piscataway, N.J.) using a fast protein liquid chromatography platform (AKTA; Amersham) following manufacturer's instructions. The eluted proteins were desalted using Hitrap desalting columns (Pharmacia) and analyzed by SDS-PAGE using Coomassie blue (Bio-Safe Coomassie reagent; Bio-Rad, Hercules, Calif.) and by Western blot.
(§2) It has been described that dimerization of FOXP3 is required for its function as a transcriptional regulator. Moreover, interaction between FOXP3 and the transcription factor Runx1, is crucially required for normal hematopoiesis including thymic T-cell development, but also for Treg suppressor activity (Reviewed in Lozano et al, Front Oncol. 2013, 3:294). Both activities are mediated by the intermediate region of Foxp3, which is the area of interaction between P60 and Foxp3. Thus, we studied the effect of P60 and their mutants on the FOXP3/Runx1 heterodimerization, as well as FOXP3/FOXP3 homodimerization by Alphascreen technology according to the manufacturer's instructions (Perkin Elmer, Benelux). AlphaScreen™ is a bead-based technology that is designed to measure the proximity of donor and acceptor beads conjugated to biomolecules of interest.
To measure Foxp3-Runx1 interactions, Foxp3-GST and […] proteins were used.
Recombinant Runx1 expressed in E. Coli with a hexa-histidine tag (obtained as disclosed in section (1) above) was captured by nickel chelate acceptor beads following manufacturer's instructions, whereas the recombinant FOXP3 expressed with a GST tag was captured by glutathione donor beads (Perkin Elmer) following manufacturer's instructions. His-tagged Runx1 (46 nM final concentration) was incubated with 100 nM GST-FOXP3 and the peptides to be tested (added at different concentrations from 1 to 100 μM) for 1 h at room temperature. […]
Background: Alpha assays give light when donor and acceptor beads are brought close together.

A further assay has as its target T2, human FOXP3 (FOXP3-6His) (Homo sapiens, UniProt Q9BZS1).
T2 construct: 6xHis (C); made in house; host or cells: E. coli BL21 (DE3)
T2 sequence (Q9BZS1 1-431): T1 sequence (Q9BZS1 1-431)
Nature of the assay: Peptide binding to FOXP3 by surface plasmon resonance (SPR). The following applies: peptides 1-20 μM; ratio to p60 (SEQ ID NO: 1).
From the text: as §1
Screening of peptide binding to FOXP3 was performed by surface plasmon resonance (SPR) using ProteOn XPR36 (Bio-Rad, Hercules Calif., USA) optical biosensor. Recombinant protein FOXP3-6His was produced and purified from E. coli as disclosed in previous section and was immobilized covalently onto a GLM sensor chip (176-5012, Bio-Rad) using sulfo-NHS and EDC (Bio-Rad) coupling reagents and the manufacturer's instructions. After protein immobilization, chip surface was treated with ethanolamine to deactivate the excess of reactive esters.
Individual solutions of the peptides to be tested (1-20 μM) were injected by triplicate in running buffer (Phosphate buffered saline, 0.005% (v/v) Tween 20, pH 7.4) at a flow of 30 μl/min. The interspot signal (obtained in the chip surface not immobilized with protein) was used as reference. The results are summarized in Table 6 below as the ratio Peptide of the invention/p60.
For orientation: Surface plasmon resonance follows binding to a sensor surface in real time, without labels.

Assay [2] concerns the target T3, FOXP3/FOXP3 homodimerization (Homo sapiens, UniProt Q9BZS1).
T3 construct: made in house; host or cells: E. coli BL21 (DE3)
T3 sequence (Q9BZS1 1-431): T1 sequence (Q9BZS1 1-431)
Nature of the assay: FOXP3/FOXP3 homodimerization inhibition (Alphascreen). The format is biochemical. The following applies: for Dimerization inhibition % inhibition (100 μM): peptide 100 μM.
From the text: as §1, §2
To measure FOXP3/FOXP3 homodimerization, recombinant Foxp3 was expressed with a Histine tag as disclosed in section (1) above, and captured by Nickel chelate Acceptor beads (Cat. AL108 Perkin Elmer) following manufacturer's instructions. The other version of recombinant FOXP3, expressing a GST tag (prepared as disclosed in section (1) above), was captured by Glutathione Donor beads (Perkin Elmer Cat. 6765300), following manufacturer's instructions. When the two proteins interacted together, the Donor and Acceptor beads come into proximity. Excitation of the Donor beads results in emission of light from the Acceptor beads. […]

Assay [3] concerns murine Treg (CD25+ T cells). Nature of the assay: In vitro Treg suppression assay ([3H]-thymidine, anti-CD3). The format is cell-based, BALB/c mice. The method, then:
Spleen was harvested from BALB/c mice (Harlan Laboratories) and homogenized with a 1-ml syringe through a 100-μm cell strainer into a 50-ml conical tube and rinsed two times with PBS (Calcium free) to recover all cells. Cell homogenate was centrifuged at 300×g for 10 min and resuspended homogenate in 1 ml ACK Lysis buffer solution per spleen. Gently swirled for 2 min and then the reaction was quenched by adding 12 ml of PBS.
Cells were centrifuged at 300×g for 10 min and purification of CD25− and CD25+ cells was carried out using magnetic beads (Miltenyi, CD25 microbead kit MOUSE, Ref 130-091-072)), following manufacturer's instructions. After labelling the cells, they were purified using Automacs-Pro device following manufacturer's instructions. Negative fraction corresponded to CD25− cells, which was used as effector Tconv cells. Positive fraction corresponded to CD25+ T cells that was used as Treg cells. Flow cytometry using anti-CD25-APC labeled and anti-CD4-FITC labelled antibodies was used to confirm the purity of isolated cells. Foxp3 expression was analyzed using the anti-Foxp3 staining antibody labelled with APC according to manufacturer's instructions (eBioscience). Purified cells were washed, resuspended in culture medium and diluted in T-cell culture medium (RPMI 1640, supplemented with 10% Fetal bovine serum and antibiotics) at a concentration of 2×10^5/ml (for Tregs) and 2×10^6/ml (for Tconv), for the assay (See below)
The first in vitro assays to measure regulatory T-cell (Treg) function were described by two groups over a decade ago. […] With this knowledge, it was shown that CD4+CD25+ T cells could potently suppress the proliferation of activated CD4+CD25− and CD8+ T cells when the populations were cocultured in vitro. The following protocol describes a basic type of in vitro Treg suppression assay where Treg function is measured in the absence of antigen-presenting cells (APCs). In this protocol, activation is mediated by anti-CD3 antibodies and includes only two cell types, the target Tconv and Tregs. In this protocol, the experiment is setup in a 96-well round-bottom plate in a total volume of 200 μl. All reagents are prepared at four times their desired final concentration and added to assay in 50 μl such that the total volume is 200 μl, thus obtaining the desired final concentration of reactives. Purified Tregs and Tconv prepared as described above were diluted and adjusted in T-cell culture medium to 2×10^5/ml and 2×10^6/ml, respectively. In round-bottom 96-well plate, Tregs and Tconv were added in 50 μl of culture media each (RPMI 1640, supplemented with 10% Fetal bovine serum, and antibiotics). Anti-CD3 antibody was added in 50 μl (final concentration will be 2.5 μg/ml) as a stimulus to induce T cell proliferation. 50 μL of each one of the peptides to be tested were added in the corresponding wells at a concentration of 100 μM and those which provided the best results were tested again at lower concentrations to determine the IC50 value. The final volume was 200 μl in all wells. Tconv alone, Tconv plus anti-CD3, Tconv+anti-CD3+ Treg or Tconv+anti-CD3+Treg+peptides were tested by quadruplicate. Tconv plus anti-CD3 with no Treg was used to determine maximum proliferation of Tconv whereas Tconv+anti-CD3+ Treg was used to determine Treg inhibition. Plates were incubated at 37° C., 5% CO2 for 72 h and then pulsed with 0.1 μCi [^3H]-thymidine (in 25 μl of culture medium per well). After 8 h of incubation, cell cultures were harvested with a cell harvester (Perkin Elmer) and using unifilter plates. Plates were then dried at 50° C., and scintillation reagent (25 μl)(Microscint, Perkin Elmer) was added to each well. Counts per minute (cpm) were determined with a direct beta counter (TopCount, Perkin Elmer).
The results of in vitro Treg suppression assays are most commonly reported as cpm when [^3H]-thymidine is incorporated into proliferating cells. […]

Data on eight compounds can be found in patent publication US10654896B2, “FoxP3-binding peptides and uses thereof” (FUNDACIÓN PARA LA INVESTIGACIÓN MÉDICA APLICADA, priority 2016, dated 2020).

Where a SMILES comes first, the peptide text is derived from it. Where no end group is shown, it is not given here. [ ]: non-standard residue; d: D form.

In general, IC50 refers to the concentration at which inhibition is half-maximal. Read a low IC50 as greater potency. One may read the inhibition as the drop in the measured response relative to a control, in per cent.

As to 30 (RDFQSFRKMWAFFAM) [compound 30], the “Foxp3-Runx1 Inhibition % inhibition (100 μM)” value in assay [1] stood at 73.9%. Moreover, the “Binding to Foxp3 Ratio binding Peptide/p60 (fold change)” value in the assay with human FOXP3 (FOXP3-6His) was 1.1 fold change. In assay [2], the “Dimerization inhibition % inhibition (100 μM)” value was 81.3%.
As to 15 (RDAQSFRKMWPFFAM) [compound 15], in assay [1], the “Foxp3-Runx1 Inhibition % inhibition (100 μM)” value is reported as 55.6%. Moreover, the “Binding to Foxp3 Ratio binding Peptide/p60 (fold change)” value with human FOXP3 (FOXP3-6His) turned out to be 1.1 fold change.
Regarding 9 (RWFQSFRKMWPFFAM) [compound 9], the “Treg inhibition - % inhibition (100 μM)” value in assay [3] (peptide 100 μM) came to 210.0%. Moreover, the “Binding to Foxp3 Ratio binding Peptide/p60 (fold change)” value with human FOXP3 (FOXP3-6His) was found to be 1.4 fold change.
Consider 5 (RAFQSFRKMWPFFAM) [compound 5], for which, in assay [1], the “Foxp3-Runx1 Inhibition % inhibition (100 μM)” value came to 76.0%. Moreover, the “Binding to Foxp3 Ratio binding Peptide/p60 (fold change)” value with human FOXP3 (FOXP3-6His) stood at 4.1 fold change. Moreover, in assay [2], the “Dimerization inhibition % inhibition (100 μM)” value was determined as 74.3%.
Compound “Ac-GRAFQAFRKMWAFFAM-NH2 (C-terminus assumed) [compound 45]” showed an IC50 in assay [3] of 3 µM. For the same compound, the “Binding to Foxp3 Ratio binding Peptide/p60 (fold change)” value on human FOXP3 (FOXP3-6His) is 8.0 fold change.
“2 (RDFQSFRKMWPFFAM-NH2; not fully specified (N-terminus)) [compound 2]”: in the assay with human FOXP3 (FOXP3-6His), the “Binding to Foxp3 Ratio binding Peptide/p60 (fold change)” value is 2.4 fold change. In addition, the “Dimerization inhibition % inhibition (20 μM)” value in assay [2] (peptide 20 μM) is given as 80 (20 μM) %.
Take `CSCC[C@H](NC(=O)[C@H](C)NC(=O)[C@H](Cc1ccccc1)NC(=O)[C@H](Cc1ccccc1)NC(=O)[C@@H]1CCCN1C(=O)[C@H](Cc1c[nH]c2ccccc12)NC(=O)[C@H](CCSC)NC(=O)[C@H](CCCCN)NC(=O)[C@H](CCCNC(=N)N)NC(=O)[C@H](Cc1ccccc1)NC(=O)[C@H](CO)NC(=O)[C@H](CCC(N)=O)NC(=O)[C@H](Cc1ccccc1)NC(=O)[C@@H](C)NC(=O)[C@H](CCCNC(=N)N)NC(=O)CNC(C)=O)C(N)=O` [compound 14] (Ac-GR[dA]FQSFRKMWPFFAM-NH2; C-terminus assumed): the inhibition at 2.5 µM in assay [1] (read-out: Foxp3-Runx1 Inhibition % inhibition (2.5 μM)) was 80%. The “Binding to Foxp3 Ratio binding Peptide/p60 (fold change)” value at human FOXP3 (FOXP3-6His) was 3.6 fold change. Besides, the inhibition at 20 µM in assay [2] (read-out: Dimerization inhibition % inhibition (20 μM)) was determined as 90%.
For 19 (RDFQAFRKMWPFFAM) [compound 19], the “Foxp3-Runx1 Inhibition % inhibition (100 μM)” value in assay [1] is recorded as 74.7%. For the same compound, the “Binding to Foxp3 Ratio binding Peptide/p60 (fold change)” value in the assay with human FOXP3 (FOXP3-6His) stood at 1.1 fold change. Besides, in assay [2], the “Dimerization inhibition % inhibition (100 μM)” value turned out to be 89.0%.
